# B1: fasinumab (antibody, chains of the INN, looked up, V domains shown)
# VH: QVQLVQSGAEVKKPGASVKVSCKVSGFTLTELSIHWVRQAPGKGLEWMGGFDPEDGETIYAQKFQGRVTMTEDTSTDTAYMELTSLRSEDTAVYYCSTIFGVVTNFDNWGQGTLVTVSS
# VL: DIQMTQSPSSLSASAGDRVTITCRASQAIRNDLGWYQQKPGKAPKRLIYAAFNLQSGVPSRFSGSGSGTEFTLTISSLQPEDLASYYCQQYNRYPWTFGQGTKVEIK
# notes: anti-NGF antibody (NGF antagonist) tested in phase 3 study R475-OA-1688
# Tested on: patients with pain due to osteoarthritis of the knee or hip
# Experiment: WOMAC pain and functional score improvement in R475-OA-1688 clinical trial, stratified by OA proteomic risk score groups
# Type: in vivo, human
molecule,measurement,setting,value
B1,efficacy compared with both NSAIDs or placebo treated patients,"Fasinumab 1q4w, OA proteomic score high risk group",has efficacy benefits
same,efficacy compared with either NSAIDs or placebo,"fasinumab 1q4w, patients in 1st to 3rd OA proteomic score quartiles",maintains efficacy superiority
same,efficacy profile (both WOMAC pain and WOMAC functional scores),"patients in 1st to 3rd OA proteomic score quartiles, fasinumab 1q4w, FIG. 9 and FIG. 10",better efficacy profile

# From US20240310383A1, “Proteomic Risk Score For Osteoarthritis (OA)” (Regeneron Pharmaceuticals, Inc., priority 2023, published 2024)
